Results reported in publication PMC12559229, “Conserved hydrophilic checkpoints tune FocA-mediated formate:H^+ symport” (Nature Communications, 2025).
Ends that are not written are not given here. GS linker = not defined here

How the values were obtained:
[1] = molecular target: T1, Pyruvate formate-lyase (PflB), full length, His-tagged (E. coli, UniProt P09373 1-760); experiment: cross-linking; XL-MS with DSBU: 10 uM PflB with equimolar FocA N-terminal peptide, 50- or 100-fold DSBU, 30 min, room temperature, 100 mM MOPS, 150 mM NaCl, pH 7.0; digest with trypsin and GluC, LC/MS/MS; details: both partners purified
T1 construct: Pyruvate formate-lyase PflB, E. coli, UniProt P09373, full length; also called His-tagged PflB
T1 sequence (looked up): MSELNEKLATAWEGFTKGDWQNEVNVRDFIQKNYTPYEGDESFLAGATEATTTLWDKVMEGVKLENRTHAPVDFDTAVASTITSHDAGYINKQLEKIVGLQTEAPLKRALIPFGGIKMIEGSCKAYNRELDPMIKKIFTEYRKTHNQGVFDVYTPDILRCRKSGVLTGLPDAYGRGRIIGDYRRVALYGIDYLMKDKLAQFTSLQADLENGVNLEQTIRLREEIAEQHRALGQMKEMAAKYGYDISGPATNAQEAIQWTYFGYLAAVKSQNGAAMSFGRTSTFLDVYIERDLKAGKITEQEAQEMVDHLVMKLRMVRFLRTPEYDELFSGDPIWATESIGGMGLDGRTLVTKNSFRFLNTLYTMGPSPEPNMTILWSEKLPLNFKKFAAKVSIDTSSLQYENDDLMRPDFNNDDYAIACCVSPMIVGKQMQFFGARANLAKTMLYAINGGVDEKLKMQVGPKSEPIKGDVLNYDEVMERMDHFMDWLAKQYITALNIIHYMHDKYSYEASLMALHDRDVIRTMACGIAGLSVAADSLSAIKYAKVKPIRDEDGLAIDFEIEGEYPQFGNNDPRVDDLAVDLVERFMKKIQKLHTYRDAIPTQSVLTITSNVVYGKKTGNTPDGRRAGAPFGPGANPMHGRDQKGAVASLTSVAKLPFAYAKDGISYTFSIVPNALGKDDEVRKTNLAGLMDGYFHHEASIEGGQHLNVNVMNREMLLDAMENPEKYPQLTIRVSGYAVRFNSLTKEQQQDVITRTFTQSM

[2] = molecular target: the molecule itself; experiment: cryo-EM structure; purified StrepII-tagged FocA solubilised in DDM, 5 mg/mL, vitrified at 4 °C; single-particle reconstruction with C5 symmetry (wild type also C1)
[3] = molecular target: T1, Pyruvate formate-lyase (PflB), full …; experiment: cross-linking; XL-MS with sulfo-SDA: 10 uM FocA modified with 50-fold sulfo-SDA (100 mM MOPS, 150 mM NaCl, DDM, pH 7.0), then mixed with 10 uM PflB and UV-irradiated (365 nm); digest with trypsin and GluC, LC/MS/MS; details: both partners purified

B1: FocA N-terminal peptide (residues 1-35 of FocA, GS linker, Strep-II tag) (peptide)
peptide: MKADNPFDLLLPAAMAKVAEEAGVYKATKHPLKTF-{GS linker-Strep‑II tag}
modifications: reading uncertain
notes: FocA, E. coli, residues 1-35 (the N-terminus of FocA); Whole peptide as printed, 45 residues: [residues removed]; also called N-terminal FocA peptide (1-45); N-terminal peptide of FocA; source: synthetic peptide (Thermo Fisher); not shown: StrepII (after a GS linker), C-terminal, kept
B1: binds [1].

B2: FocA (formate channel), wild type, full length, C-terminal StrepII-tag (natural protein, E. coli, UniProt P0AC23 1-285, looked up)
chain: MKADNPFDLLLPAAMAKVAEEAGVYKATKHPLKTFYLAITAGVFISIAFVFYITATTGTGTMPFGMAKLVGGICFSLGLILCVVCGADLFTSTVLIVVAKASGRITWGQLAKNWLNVYFGNLVGALLFVLLMWLSGEYMTANGQWGLNVLQTADHKVHHTFIEAVCLGILANLMVCLAVWMSYSGRSLMDKAFIMVLPVAMFVASGFEHSIANMFMIPMGIVIRDFASPEFWTAVGSAPENFSHLTVMNFITDNLIPVTIGNIIGGGLLVGLTYWVIYLRENDHH
notes: FocA, formate channel of the formate-nitrite transporter family, E. coli, UniProt P0AC23, full length; Pentamer in the cryo-EM structure; In the sulfo-SDA experiment FocA was first modified on amines with sulfo-SDA; also called native FocA; wild-type FocA; source: E. coli BL21(DE3) transformed with pfocA3; solubilised from membranes with DDM, purified (Strep-Tactin Sepharose); not shown: StrepII, …
In the case of B2, the “stoichiometry N” value [2] is reported as 5 and the binding result [3] is reported as “binds”.

B3: FocA-H209N variant, C-terminal StrepII-tag (natural protein, E. coli, UniProt P0AC23 1-285, looked up)
chain: MKADNPFDLLLPAAMAKVAEEAGVYKATKHPLKTFYLAITAGVFISIAFVFYITATTGTGTMPFGMAKLVGGICFSLGLILCVVCGADLFTSTVLIVVAKASGRITWGQLAKNWLNVYFGNLVGALLFVLLMWLSGEYMTANGQWGLNVLQTADHKVHHTFIEAVCLGILANLMVCLAVWMSYSGRSLMDKAFIMVLPVAMFVASGFENSIANMFMIPMGIVIRDFASPEFWTAVGSAPENFSHLTVMNFITDNLIPVTIGNIIGGGLLVGLTYWVIYLRENDHH
notes: FocA, E. coli, UniProt P0AC23, with the exchange H209N; made by mutagenesis of pfocA3, which carries the native focA gene; Reconstructed with C5 symmetry; also called H209N-FocA; source: E. coli BL21(DE3) transformed with pfocAH209N; solubilised from membranes with DDM, purified (Strep-Tactin Sepharose); not shown: StrepII, C-terminal, kept
B3: binds [2].
